Data reported in patent publication US20200002383A1.

What was measured:
[1] = target: CH505 transmitted/founder (TF) gp120 Env (HIV-1); assay: SPR, antibody captured, gp120 injected
[2] = target: CH505 M11 gp120 (HIV-1); assay: ELISA
[3] = target: CH505 transmitted/founder (TF) gp120 Env (HIV-1); assay: ELISA
[4] = target: CH505 w020.14 gp120 (HIV-1); assay: ELISA
[5] = target: CH505 transmitted/founder (TF) gp120 Env (HIV-1); assay: SPR
[6] = target: CH505 TF CHIM.6R.SOSIP.664V4.1 trimer (HIV-1); assay: kinetic binding assay of FIG. 69
[7] = target: CH505 M5 gp120 (HIV-1); assay: ELISA
[8] = target: CH505 TF loop D mutant M8 Env on virus (HIV-1)
[9] = target: CH505 w078.15 gp120 (HIV-1); assay: ELISA
[10] = target: CH505 w030.28 gp120 (HIV-1); assay: ELISA
[11] = target: CH505 w053.16 gp120 (HIV-1); assay: ELISA
[12] = target: CH505 TF loop D mutant M20 Env on virus (HIV-1)
[13] = target: CH505 TF loop D mutant M9 Env on virus (HIV-1)
[14] = target: CH505 TF loop D mutant M7 Env on virus (HIV-1)
[15] = target: CH505 w078.33 gp120 (HIV-1); assay: ELISA
[16] = target: CH505 w053.31 gp120 (HIV-1); assay: ELISA
[17] = target: CH505 w100.B6 gp120 (HIV-1); assay: ELISA
[18] = target: CH505 w030.21 gp120 (HIV-1); assay: ELISA
[19] = target: BG505 SOSIP.664 gp140 trimer (HIV-1); assay: negative-stain EM

Row | Substance | log AUC [2] | log AUC [3] | log AUC [4] | log AUC [7] | log AUC [9] | log AUC [10] | further results
1 | CH103 UCA (antibody) | 2.6 log AUC | 3.5 log AUC | 0.3 log AUC | – | – | – | Kd [1]: 227 nM; kon [1]: 37000 M⁻¹ s⁻¹; Kd [5]: 200 nM; fold change of the off-rate against CH505 TF gp120 [6]: 10 fold
2 | CH235 lineage I2 (antibody) | – | – | 1.2 log AUC | 6.9 log AUC | – | – | –
3 | CH235 lineage IA4 (antibody) | – | – | – | 1.4 log AUC | – | – | –
4 | CH235.9 (antibody) | – | – | – | – | – | – | IC50 [8]: 0.66 µg/mL
5 | CH103 lineage IA4 (from UniProt P27701) (antibody) | 10.5 log AUC | 10.1 log AUC | 8.6 log AUC | 3.8 log AUC | 1.3 log AUC | 6.5 log AUC | log AUC [11]: 0.2 log AUC
6 | CH235.9 N30T (antibody) | – | – | – | – | – | – | IC50 [12]: > 44 µg/mL; IC50 [13]: > 44 µg/mL; IC50 [8]: 24.3 µg/mL; IC50 [14]: > 44 µg/mL
7 | CH103 lineage IA7 (antibody) | 10.1 log AUC | 9.2 log AUC | 7.2 log AUC | 2.3 log AUC | 0.7 log AUC | 3.5 log AUC | –
8 | CH103 lineage IA1 (antibody) | 12.2 log AUC | 10.4 log AUC | 10.3 log AUC | 7 log AUC | 10.9 log AUC | 10.1 log AUC | log AUC [15]: 8.2 log AUC; log AUC [16]: 13.4 log AUC; log AUC [17]: 12.2 log AUC; log AUC [11]: 8.8 log AUC; log AUC [18]: 11.8 log AUC
9 | CH235 Fab | – | – | – | – | – | – | stoichiometry (Fabs per trimer) (Fab per trimer) [19]: 1
10 | CH103 lineage IA6 (antibody) | 10 log AUC | 9.1 log AUC | 7.9 log AUC | 3.3 log AUC | 1 log AUC | 6.3 log AUC | –
11 | CH235 lineage I1 (antibody) | 2.8 log AUC | – | 6.5 log AUC | 9.2 log AUC | – | 2.4 log AUC | –
12 | CH235 lineage I3 (antibody) | – | – | 2.7 log AUC | 7 log AUC | – | – | –
13 | CH235 UCA (antibody) | – | – | – | 0.2 log AUC | – | – | –
14 | CH103 lineage IA2 (antibody) | 12.7 log AUC | 10.8 log AUC | 11 log AUC | 7.8 log AUC | 11.5 log AUC | 11.1 log AUC | log AUC [15]: 9 log AUC; log AUC [16]: 13.3 log AUC; log AUC [17]: 12.1 log AUC; log AUC [11]: 9.3 log AUC; log AUC [18]: 11.5 log AUC
15 | CH103 lineage IA8 (antibody) | 6.2 log AUC | 5.5 log AUC | 3.4 log AUC | 0.6 log AUC | – | 1.6 log AUC | –
16 | CH103 lineage IA3 (antibody) | 11.8 log AUC | 11 log AUC | 9.5 log AUC | 6.8 log AUC | 3 log AUC | 7.7 log AUC | log AUC [11]: 1.1 log AUC
